Assay results reported in patent US20260098092A1 (CHULALONGKORN UNIVERSITY, published 2026).
Positions count from the first letter of the chain named. Read-outs that look alike come from different tables or passages of the source.

Assays:
[1] = target: T1, recombinant human PD-1 His-tag protein (R&D Systems) (human, UniProt Q15116 25-167); assay: ELISA, PD-1 His-tag coated on plate, anti-mouse IgG Fc-HRP detection
T1 construct: Bought reagent; Used for the ELISA (coated) and for SPR (analyte); also called PD-1 protein; human PD-1 protein; not shown: His-tag
T1 sequence (Q15116 25-167 limits assumed): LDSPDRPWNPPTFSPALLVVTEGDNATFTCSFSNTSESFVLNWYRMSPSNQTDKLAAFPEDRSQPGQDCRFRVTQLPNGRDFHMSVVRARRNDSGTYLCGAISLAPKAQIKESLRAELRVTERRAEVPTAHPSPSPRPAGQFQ
Method: (§1) ELISA technique was used to select hybridoma mini-pools producing anti-PD-1 antibodies using the following procedure. MaxiSorp ELISA plate was coated with PD-1 His-tag (R&D System) in PBS buffer (10 ng/100 μL/well) at 4° C. overnight. […] The culture supernatant of each mini-pool (100 μL) was added to the plate then incubated for 1 hour at 37° C. After washing, the plate was probed with goat anti-mouse IgG Fcγ-HRP (Jackson Immuno Research) diluted 1:8,000 in PBST (100 μL/well) and incubated for 1 hour at 37° C. […] 1 M H₂SO₄ (50 μL/well) was used to stop the reaction. […] Hybridoma mini-pools with absorbance values of more than 1.0 were selected for further screening.
The purified antibodies were 2-fold serial diluted for eleven rounds starting from 2 μg/mL until reaching the final concentration of 0.977 ng/mL. The PD-1 binding activity of purified antibodies was evaluated by ELISA following the procedure mentioned in Example 2. The half-maximal effective concentration (EC₅₀) was calculated using GraphPad Prism® software.

[2] = target: T2, human PD-1 on PD-1-expressing Jurkat effector cells (human, UniProt Q15116 25-288); assay: cell-based or functional assay
T2 sequence (Q15116 25-288): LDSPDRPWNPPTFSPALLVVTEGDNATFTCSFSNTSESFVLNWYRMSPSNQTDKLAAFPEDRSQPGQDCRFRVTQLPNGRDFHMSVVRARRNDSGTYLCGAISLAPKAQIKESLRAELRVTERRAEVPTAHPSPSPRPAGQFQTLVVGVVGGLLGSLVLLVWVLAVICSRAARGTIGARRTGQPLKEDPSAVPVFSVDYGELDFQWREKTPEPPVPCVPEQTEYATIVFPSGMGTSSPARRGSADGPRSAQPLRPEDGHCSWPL

[3] = target: T1, recombinant human PD-1 His-tag protein …; assay: ELISA, PD-1 His-tag coated on plate, anti-human IgG Fc-HRP detection
Method: as §1
The purified chimeric antibodies were 2-fold serial diluted for eleven rounds starting from […] until reaching the final concentration of 0.977 ng/mL. The PD-1 binding activity of purified chimeric antibodies was evaluated by ELISA following the procedure mentioned in Example 2, while the goat anti-human IgG Fcγ-HRP antibody (Jackson Immuno Research) diluted 1:10.000 in PBST was used to detect chimeric antibodies.

[4] = target: T2, human PD-1 on PD-1-expressing Jurkat …; assay: cell-based or functional assay; remark: listed apart in the source
[5] = target: T1, recombinant human PD-1 His-tag protein …; assay: SPR, Biacore T200, antibody captured on Protein G chip, PD-1 His-tag injected, single-cycle kinetics, 1:1 model
Method: (§2) The Biacore T200 instrument, equipped with a Protein G sensor chip (GE Healthcare), was used to determine the binding kinetics between chimeric anti-PD-1 antibodies and PD-1 protein. Each purified chimeric anti-PD-1 antibody (1 μg/mL) was injected into the chip with a flow rate of 30 μL/min for 60 sec. […] The HBS-EP+buffer (GE Healthcare) was used as a buffer blank and diluent. The association constant (kₒₙ), dissociation constant (koff), and equilibrium constant (KD) values were calculated using Biacore T200 evaluation software (version 3.1) with a 1:1 Langmuir binding model curve fitting.

[6] = target: T1, recombinant human PD-1 His-tag protein …; assay: binding kinetics (method not described at the table; presumably SPR as in Example 8)
[7] = target: T1, recombinant human PD-1 His-tag protein …; assay: SPR, Biacore T200, as in Example 8 (antibody on Protein G chip, PD-1 His-tag injected)
Method: as §2

B1: mCUSB0103 (antibody, V domains shown)
VH: DVKLVESGGGLVKPGGSLKLSCAASGFTFSSYTMSWVRQTPEKRLEWVAAISGGGSYTYYADSVKGRFTISRDNAKNTLSLQMSSLKSEDTAMYFCTSPYDFAMDYWGQGTSVTVSS
VL: DIQMTQTTSSLSASLGDRVTISCRASQDITNYLNWYQQKPDGSVKLLIYYTSRLHSGVPSRFRGSGSGTDYSLTISNLEQEDIATYFCQQGNTLPWTFGGGTKLEIK
notes: Mouse monoclonal antibody purified from hybridoma
EC50 [1]: 0.0494 µg/mL | PD-1/PD-L1 blockade bioassay, IC50 [2]: 0.843 µg/mL

B2: xCUSB0124 (antibody, human IgG4, V domains shown)
VH: QIQLVQSGPELKKPGETVKISCKASGYIFTNYGVTWVKQTPGKGLKWMTWINTNTGEPTSAEEFKGRFDFSSETSATTAYLQINNLKNEDTATYFCVRIRENAMDYWGQGTSVTVSS
VL: DIQMTQSPASQSASLGESVTITCLASQTIGTWLAWYQQKPGKSPQLLIYAATRLAVGVPSRFSGSGSGTKFSFKISRLQAEDFVSYYCQQLYSTPFTFGSGTKLEIK
notes: Chimeric: mouse variable regions joined to human IgG4/kappa constant regions; also called chimeric CUSB0124; not shown: human IgG4 constant region, UniProt P01861; human kappa constant region, UniProt P01834
EC50 [3]: 0.0894 µg/mL | PD-1/PD-L1 blockade bioassay, IC50 [4]: 2930 ng/mL | Kd [5]: 5.92 nM | koff [5]: 0.000912 s⁻¹ | kon [5]: 154000 M⁻¹ s⁻¹

B3: xCUSB0126 (antibody, human IgG4, V domains shown)
VH: VKLVESGGDLVKPGGSLKLSCAASGFPFSSYLMSWVRQTPEKRLEWVAAISGGGRDTYYPDNVKGRFTISRDNARNILYLQMSSLRSEDTAVYYCATRGSYAMDYWGQGTSVTVSS
VL: B2 VL with L46I, R53N, V56D, R77S, T94I, F96W, S100G
notes: Chimeric: mouse variable regions joined to human IgG4/kappa constant regions; also called chimeric CUSB0126; not shown: human IgG4 constant region, UniProt P01861; human kappa constant region, UniProt P01834
EC50 [3]: 0.0437 µg/mL | PD-1/PD-L1 blockade bioassay, IC50 [4]: 430 ng/mL | Kd [5]: 0.577 nM | koff [5]: 0.000285 s⁻¹ | kon [5]: 493000 M⁻¹ s⁻¹

B4: mCUSB0126 (antibody, V domains shown)
VH: B3 VH
VL: B2 VL with L46I, R53N, V56D, R77S, T94I, F96W, S100G
notes: as for B1
EC50 [1]: 0.0442 µg/mL | PD-1/PD-L1 blockade bioassay, IC50 [2]: 0.846 µg/mL

B5: mCUSB0129 (antibody, V domains shown)
VH: B3 VH with D9G, N62S, V92L, T97R
VL: B2 VL with L46I, A50D, R53N, V56D, R77S, T94I, F96W, S100G
notes: as for B1
EC50 [1]: 0.074 µg/mL | PD-1/PD-L1 blockade bioassay, IC50 [2]: 1.83 µg/mL

B6: xCUSB0129 (antibody, human IgG4, V domains shown)
VH: B3 VH with D9G, N62S, V92L, T97R
VL: B2 VL with L46I, A50D, R53N, V56D, R77S, T94I, F96W, S100G
notes: Chimeric: mouse variable regions joined to human IgG4/kappa constant regions; also called chimeric CUSB0129; not shown: human IgG4 constant region, UniProt P01861; human kappa constant region, UniProt P01834
EC50 [3]: 0.0347 µg/mL | PD-1/PD-L1 blockade bioassay, IC50 [4]: 455 ng/mL | Kd [5]: 0.621 nM | koff [5]: 0.000293 s⁻¹ | kon [5]: 471000 M⁻¹ s⁻¹

B7: mCUSB0123 (antibody, V domains shown)
VH: QVQLQQSGPELVRPGESVKISCKGSGYTFTDYVMHWVKQSHAKSLEWIGVITIYNDITNYNQKFKGKATMTIDKSSSTAYMELARLTSEDSAIYYCAREGYDSYWYFDVWGAGTTVTVSS
VL: DVLMTQTPLSLPVSLGDQASISCRSSQTIVHSNGNTYLEWYLQKPGQSPKLLIYKVSNRFSGVPDRFSGSGSGTDFTLKISRVEAEDLGVYYCFQGSHLPYTFGGGTKLEIK
notes: as for B1
EC50 [1]: 0.0701 µg/mL | PD-1/PD-L1 blockade bioassay, IC50 [2]: 2.43 µg/mL

B8: mCUSB0124 (antibody, V domains shown)
VH: B2 VH
VL: B2 VL
notes: as for B1
EC50 [1]: 0.104 µg/mL | PD-1/PD-L1 blockade bioassay, IC50 [2]: 6.58 µg/mL

B9: mCUSB0125 (antibody, V domains shown)
VH: DVQLRESGPGLVKPSQSLSLTCTVTGYSITSDYAWNWIRQFPGNKLEWMGYIYYSGTTSYNPSLKSRISITRDTSKNQFFLQLNSVTTEDTATYYCARNYGSAFYYFDYWGQGTTLTVSS
VL: DILMTQSPSSMSVSLGDTVTITCHASQGISSNIGWLQQKPGKSFKGLIYRGTNLEDGVPSRFSGSGSGADYSLTISSLESEDFADYYCVQYAQFPPTFGGGTKLEIK
notes: as for B1
EC50 [1]: 0.109 µg/mL | PD-1/PD-L1 blockade bioassay, IC50 [2]: 2.71 µg/mL

B10: mCUSB0136 (antibody, V domains shown)
VH: QVQLKESGPGLVAPSQSLSITCTVSGFSLTTYDIIWIRQSPGKGLEWLGVIWTGGDTNYNSAFMSRLSISKDNSKSQIFLKMNSLQTDDTAIYYCVRDWAYWGQGTLVTVST
VL: NIVLTQSPASLAVSLGQRATISCRASESVDNYGNSFIQWYQQKPGQPPKLLIYFASNLQSGVPARFSGSGSRTDFTLTIDPVEADDAATYYCHQNNEDPFTFGSGTKLEIK
notes: as for B1
EC50 [1]: 0.0342 µg/mL | PD-1/PD-L1 blockade bioassay, IC50 [2]: 1.21 µg/mL

B11: xCUSB0103 (antibody, human IgG4, V domains shown)
VH: B1 VH
VL: B1 VL
notes: Chimeric: mouse variable regions joined to human IgG4/kappa constant regions; also called chimeric CUSB0103; not shown: human IgG4 constant region, UniProt P01861; human kappa constant region, UniProt P01834
EC50 [3]: 0.0284 µg/mL | PD-1/PD-L1 blockade bioassay, IC50 [4]: 593 ng/mL | Kd [5]: 0.448 nM | koff [5]: 0.000292 s⁻¹ | kon [5]: 653000 M⁻¹ s⁻¹

B12: Modified Seq23 (modified zCUSB0136.8 antibody) (antibody, V domains shown)
VH: QVQLQESGPGLVKPSETLSLTCTVSGFSLTVYDIIWIRQSPGKGLEWLGVIWTGGDTNYNSAFMSRLTISKDTSKNQISLKMSSLTAADTAVYYCARDWAYWGQGTLVTVSS
VL: DIVLTQSPDSLAVSLGERATISCRASESVDNWGNSFIQWYQQKPGQPPKLLIYFASYLQSGVPDRFSGSGSGTDFTLTISSVQAEDVATYYCHQNNEDPFTFGGGTKLEIK
Kd [6]: 0.0582 nM | koff [6]: 0.000288 s⁻¹ | kon [6]: 4.96e+06 M⁻¹ s⁻¹

B13: Modified Seq24 (modified zCUSB0136.8 antibody) (antibody, V domains shown)
VH: B12 VH with N58T
VL: B12 VL with W32Y, Y57Q
Kd [6]: 0.0618 nM | koff [6]: 0.000112 s⁻¹ | kon [6]: 1.81e+06 M⁻¹ s⁻¹

B14: Modified Seq25 (modified zCUSB0136.8 antibody) (antibody, V domains shown)
VH: B12 VH with V31T, N58T
VL: B12 VL with W32Y, Y57H
Kd [6]: 0.0664 nM | koff [6]: 0.000145 s⁻¹ | kon [6]: 2.18e+06 M⁻¹ s⁻¹

B15: zCUSB0136.8-1 (antibody, V domains shown)
VH: B12 VH with V31T, N58W
VL: B12 VL
notes: also called CUSB0136-BMVH.3a with CUSB0136-BMVL.2a
Kd [7]: 0.0237 nM | koff [7]: 0.000142 s⁻¹ | kon [7]: 6e+06 M⁻¹ s⁻¹

B16: zCUSB0136.8-2 (antibody, V domains shown)
VH: B12 VH with N58T, A100I
VL: B12 VL with W32Y
notes: also called CUSB0136-BMVH.3b with CUSB0136-BMVL.2b
Kd [7]: 0.0155 nM | koff [7]: 7.27e-05 s⁻¹ | kon [7]: 4.68e+06 M⁻¹ s⁻¹

B17: zCUSB0136.8-3 (antibody, V domains shown)
VH: B12 VH with N58T
VL: B12 VL with W32Y
notes: also called CUSB0136-BMVH.3c with CUSB0136-BMVL.2b
Kd [7]: 0.0208 nM | koff [7]: 9.31e-05 s⁻¹ | kon [7]: 4.48e+06 M⁻¹ s⁻¹

B18: zCUSB0136.8-4 (antibody, V domains shown)
VH: B12 VH with N58T, A100M
VL: B12 VL with W32Y
notes: also called CUSB0136-BMVH.3d with CUSB0136-BMVL.2b
Kd [7]: 0.0159 nM | koff [7]: 7.02e-05 s⁻¹ | kon [7]: 4.42e+06 M⁻¹ s⁻¹

B19: Modified Seq13 (modified zCUSB0136.8 antibody) (antibody, V domains shown)
VH: B12 VH with V31T, N58T
VL: B12 VL with W32Y
Kd [6]: 0.0243 nM | koff [6]: 8.47e-05 s⁻¹ | kon [6]: 3.49e+06 M⁻¹ s⁻¹

B20: Modified Seq16 (modified zCUSB0136.8 antibody) (antibody, V domains shown)
VH: B12 VH with V31T, N58T
VL: B12 VL with W32Y
Kd [6]: 0.0266 nM | koff [6]: 9.31e-05 s⁻¹ | kon [6]: 3.5e+06 M⁻¹ s⁻¹
